From patent US12630600B2 (MEDIMMUNE LIMITED, priority 2022, dated 2026) come the findings set out here.

Starred links: 1 amine or outer side, 2 acyl side, 3 side chain; linkers in the order of their positions; H or OH if unused. Non-standard residues stand in square brackets, D forms with d. Groups on a side chain read outwards from the residue. No end group written: not given here. *: point of attachment. C20 diacid = O=C(O)CCCCCCCCCCCCCCCCCCC(=O)*; C18 diacid = O=C(O)CCCCCCCCCCCCCCCCC(=O)*; γGlu = O=C(O)[C@H](CCC(=O)[*:2])N[*:1]; αMeF = C[C@](N)(Cc1ccccc1)C(=O)O; (PEG)2 = polyethylene glycol 2; PEG4 = NCCOCCOCCOCCOCCC(=O)O; AEEA = NCCOCCOCC(=O)O; Aib = CC(C)(N)C(=O)O

One assay has as its target human GLP-1 receptor (human, UniProt P43220). In words: cell-based or functional assay.
In another assay the target is human glucagon receptor (human, UniProt P47871). In words: cell-based or functional assay.

B1: Peptide 246 (peptide)
peptide: H[Aib]HGS[αMeF]TSDVSK[αMeF]LDSRAAK([AEEA-AEEA-γGlu-γGlu-C20 diacid])D[αMeF]VESIANT-NH2
modifications: N-terminus assumed
SMILES: CC[C@H](C)[C@H](NC(=O)[C@H](CO)NC(=O)[C@H](CCC(=O)O)NC(=O)[C@@H](NC(=O)[C@](C)(Cc1ccccc1)NC(=O)[C@H](CC(=O)O)NC(=O)[C@H](CCCCNC(=O)COCCOCCNC(=O)COCCOCCNC(=O)CC[C@H](NC(=O)CC[C@H](NC(=O)CCCCCCCCCCCCCCCCCCC(=O)O)C(=O)O)C(=O)O)NC(=O)[C@H](C)NC(=O)[C@H](C)NC(=O)[C@H](CCCNC(=N)N)NC(=O)[C@H](CO)NC(=O)[C@H](CC(=O)O)NC(=O)[C@H](CC(C)C)NC(=O)[C@](C)(Cc1ccccc1)NC(=O)[C@H](CCCCN)NC(=O)[C@H](CO)NC(=O)[C@@H](NC(=O)[C@H](CC(=O)O)NC(=O)[C@H](CO)NC(=O)[C@@H](NC(=O)[C@](C)(Cc1ccccc1)NC(=O)[C@H](CO)NC(=O)CNC(=O)[C@H](Cc1c[nH]cn1)NC(=O)C(C)(C)NC(=O)[C@@H](N)Cc1c[nH]cn1)[C@@H](C)O)C(C)C)C(C)C)C(=O)N[C@@H](C)C(=O)N[C@@H](CC(N)=O)C(=O)N[C@H](C(N)=O)[C@@H](C)O
As for B1, the “hGLP-1R EC50 (pM)” value with human GLP-1 receptor is 320 pM. Besides, the “hGluc-R EC50 (pM)” value in the assay with human glucagon receptor amounted to 557 pM.

Consider H[Aib]HGS[αMeF]TSDVSK[αMeF]LDSRAAK([PEG4-γGlu-γGlu-C18 diacid])D[αMeF]VQ[Aib]IANT-NH2 [Peptide 263], for which, in the assay with human GLP-1 receptor, the “hGLP-1R EC50 (pM)” value came to 25.4 pM. The “hGluc-R EC50 (pM)” value with human glucagon receptor stood at 64.6 pM.

For the molecule H[Aib]HGS[αMeF]TSDVSK[αMeF]LDSR[Aib]AK([γGlu-C18 diacid])DFVESIANT-NH2 [Peptide 254], the “hGLP-1R EC50 (pM)” value in the assay with human GLP-1 receptor was determined as 102 pM. In addition, the “hGluc-R EC50 (pM)” value in the assay with human glucagon receptor was 125 pM.

B2: Peptide 244 (peptide)
peptide: H[Aib]HGS[αMeF]TSDVSK[αMeF]LDSRAAK([AEEA-AEEA-γGlu-γGlu-C20 diacid])D[αMeF]VQSIANT-NH2
modifications: N-terminus assumed
SMILES: CC[C@H](C)[C@H](NC(=O)[C@H](CO)NC(=O)[C@H](CCC(N)=O)NC(=O)[C@@H](NC(=O)[C@](C)(Cc1ccccc1)NC(=O)[C@H](CC(=O)O)NC(=O)[C@H](CCCCNC(=O)COCCOCCNC(=O)COCCOCCNC(=O)CC[C@H](NC(=O)CC[C@H](NC(=O)CCCCCCCCCCCCCCCCCCC(=O)O)C(=O)O)C(=O)O)NC(=O)[C@H](C)NC(=O)[C@H](C)NC(=O)[C@H](CCCNC(=N)N)NC(=O)[C@H](CO)NC(=O)[C@H](CC(=O)O)NC(=O)[C@H](CC(C)C)NC(=O)[C@](C)(Cc1ccccc1)NC(=O)[C@H](CCCCN)NC(=O)[C@H](CO)NC(=O)[C@@H](NC(=O)[C@H](CC(=O)O)NC(=O)[C@H](CO)NC(=O)[C@@H](NC(=O)[C@](C)(Cc1ccccc1)NC(=O)[C@H](CO)NC(=O)CNC(=O)[C@H](Cc1c[nH]cn1)NC(=O)C(C)(C)NC(=O)[C@@H](N)Cc1c[nH]cn1)[C@@H](C)O)C(C)C)C(C)C)C(=O)N[C@@H](C)C(=O)N[C@@H](CC(N)=O)C(=O)N[C@H](C(N)=O)[C@@H](C)O
In the case of B2, the “hGLP-1R EC50 (pM)” value in the assay with human GLP-1 receptor worked out at 143 pM. For the same molecule, in the assay with human glucagon receptor, the “hGluc-R EC50 (pM)” value was determined as 420 pM.

On to H[Aib]HGS[αMeF]TSDVSK[αMeF]LDSRAAK([AEEA-γGlu-AEEA-C18 diacid])D[αMeF]VQ[Aib]IANT-NH2 [Peptide 259], for which the “hGLP-1R EC50 (pM)” value in the assay with human GLP-1 receptor came out at 19.1 pM. Moreover, the “hGluc-R EC50 (pM)” value with human glucagon receptor is 34.8 pM.

In the case of H[Aib]HGS[αMeF]TSDVSK[αMeF]LDSRAAK([(PEG)2-(PEG)2-γGlu-γGlu-C20 diacid])D[αMeF]VQ[Aib]IANT-NH2 [Peptide 264], the “hGLP-1R EC50 (pM)” value with human GLP-1 receptor worked out at 69.5 pM. Also, in the assay with human glucagon receptor, the “hGluc-R EC50 (pM)” value was determined as 297 pM.

Take H[Aib]HGS[αMeF]TSDVSK[αMeF]LDSRAAK([AEEA-γGlu-C18 diacid])D[αMeF]VQ[Aib]IANT-NH2 [Peptide 262]: in the assay with human GLP-1 receptor, the “hGLP-1R EC50 (pM)” value was determined as 13 pM. For the same molecule, the “hGluc-R EC50 (pM)” value in the assay with human glucagon receptor was found to be 11.7 pM.

B3: Peptide 261 (peptide)
peptide: H[Aib]HGS[αMeF]TSDVSK[αMeF]LDSRAAK([PEG4-γGlu-C18 diacid])D[αMeF]VQ[Aib]IANT-NH2
modifications: N-terminus assumed
SMILES: CC[C@H](C)[C@H](NC(=O)C(C)(C)NC(=O)[C@H](CCC(N)=O)NC(=O)[C@@H](NC(=O)[C@](C)(Cc1ccccc1)NC(=O)[C@H](CC(=O)O)NC(=O)[C@H](CCCCNC(=O)CCOCCOCCOCCOCCNC(=O)CC[C@H](NC(=O)CCCCCCCCCCCCCCCCC(=O)O)C(=O)O)NC(=O)[C@H](C)NC(=O)[C@H](C)NC(=O)[C@H](CCCNC(=N)N)NC(=O)[C@H](CO)NC(=O)[C@H](CC(=O)O)NC(=O)[C@H](CC(C)C)NC(=O)[C@](C)(Cc1ccccc1)NC(=O)[C@H](CCCCN)NC(=O)[C@H](CO)NC(=O)[C@@H](NC(=O)[C@H](CC(=O)O)NC(=O)[C@H](CO)NC(=O)[C@@H](NC(=O)[C@](C)(Cc1ccccc1)NC(=O)[C@H](CO)NC(=O)CNC(=O)[C@H](Cc1c[nH]cn1)NC(=O)C(C)(C)NC(=O)[C@@H](N)Cc1c[nH]cn1)[C@@H](C)O)C(C)C)C(C)C)C(=O)N[C@@H](C)C(=O)N[C@@H](CC(N)=O)C(=O)N[C@H](C(N)=O)[C@@H](C)O
Consider B3, for which the “hGLP-1R EC50 (pM)” value with human GLP-1 receptor stood at 16.2 pM. In addition, in the assay with human glucagon receptor, the “hGluc-R EC50 (pM)” value is 29.4 pM.

As for H[Aib]HGS[αMeF]TSDVSK[αMeF]LDSRAAK([(PEG)2-(PEG)2-γGlu-γGlu-C18 diacid])D[αMeF]VQ[Aib]IANT-NH2 [Peptide 258], in the assay with human GLP-1 receptor, the “hGLP-1R EC50 (pM)” value was 34 pM. Besides, the “hGluc-R EC50 (pM)” value in the assay with human glucagon receptor worked out at 93.1 pM.

As for H[Aib]HGS[αMeF]TSDVSK[αMeF]LDSRAAK([AEEA-γGlu-AEEA-C20 diacid])D[αMeF]VQ[Aib]IANT-NH2 [Peptide 265], in the assay with human GLP-1 receptor, the “hGLP-1R EC50 (pM)” value turned out to be 71.2 pM. Further, the “hGluc-R EC50 (pM)” value with human glucagon receptor was determined as 131 pM.

As to H[Aib]HGS[αMeF]TSDVSK[αMeF]LDSR[Aib]AK([AEEA-γGlu-C18 diacid])DFVESIANT-NH2 [Peptide 253], the “hGLP-1R EC50 (pM)” value with human GLP-1 receptor is 75.5 pM. Besides, in the assay with human glucagon receptor, the “hGluc-R EC50 (pM)” value stood at 53.1 pM.

Regarding H[Aib]HGS[αMeF]TSDVSK[αMeF]LDSR[Aib]AK([AEEA-AEEA-γGlu-C18 diacid])DFVESIANT-NH2 [Peptide 251], the “hGLP-1R EC50 (pM)” value in the assay with human GLP-1 receptor was determined as 79.8 pM. Also, the “hGluc-R EC50 (pM)” value with human glucagon receptor was found to be 248 pM.

For the molecule H[Aib]HGS[αMeF]TSDVSK[αMeF]LDSRAAK([AEEA-γGlu-AEEA-γGlu-C18 diacid])D[αMeF]VQ[Aib]IANT-NH2 [Peptide 260], the “hGLP-1R EC50 (pM)” value with human GLP-1 receptor was found to be 33.1 pM. The “hGluc-R EC50 (pM)” value with human glucagon receptor came to 76.9 pM.

Consider H[Aib]HGS[αMeF]TSDVSK[αMeF]LDSQAAK([AEEA-AEEA-γGlu-γGlu-C20 diacid])D[αMeF]VQ[Aib]IANT-NH2 [Peptide 256], for which, in the assay with human GLP-1 receptor, the “hGLP-1R EC50 (pM)” value amounted to 346 pM. The “hGluc-R EC50 (pM)” value in the assay with human glucagon receptor amounted to 1310 pM.
